B1: IgdEporcinus: IgdE isolated from S. porcinus strain DSM20725, SEQ ID NO: 5 (protein, listed as Streptococcus porcinus)
chain: AVLARENSNSGQLHPEARQIKAVDFQEFSKKLKEEISENQQFHVFKLGMNNYYRSGIRINELNNLATEHDFILVNDHASHKKYDVPHIFIMNKGDVIVPSKEKYDEQMREVKFAGDQPNAQRQRIHALFEIGLDSNKRQLLNAAGLGTAENTLAKVDGFTIYSHGLTVDNKYYEDYIRFNKNENINITKERFTANDNLIHNLITESTAKVQTNDRDKVKAFVMYVANHTIYDWIAANNAVSNISDVNYYLGSDLFSITERKKAMCVGFSTTAARAFNMLGIPAYVVVGKNAQGVDHATARAYYNGKWHTIDGTGFINDKASRSTIYSENHFYSIGEDSYNIVDVNDEQIAFDKNYMKIDKVFEEWAQKQPTADLLLINKDKSLVPSNYVAYVAPVIVDNNRKGSLTQIYQNLKQVMESSSQKASLTSLLNTATADIAKLQTSSQLTQEDYNQIQNSMKSVLSFFWQLDKDSATNFENSEDYKKYLTETKNAGN
B2: IgdEagalactiae: IgdE isolated from S. agalactiae strain CCUG4208, SEQ ID NO: 3 (protein, listed as Streptococcus agalactiae)
chain: NQNNIQETNLVEKNSEDKFIQELNRYKTEIPNFKGFNVWILGDKGYYKNLINLEEIKNIQATLKKERNEEYVFVKLNGKIAHDTTVFLMNKKHKLLKNIEEFKTITQKRLTERGKFPYDTVHSTFEIKDENFIMERLKSSGLSMGKPVDYMGVNGIPIYTKTLSIDNKFAFENNSKDSSYSSNINISEDKIKENDQKILDLIVKSGANNQNLTDEEKVIAFTKYIGEITNYDNEAYRARNVDTEYYRASDLFSVTERKLAMCVGYSVTAARAFNIMGIPSYVVSGKSPQGISHAAVRAYYNRSWHIIDITASTYWKNGNYKTTYSDFIKEYCIDGYDVYDPAKTNNRFKVKYMESNEAFENWIHNNGSKSMLFINESAALKDKKPKDDFVPVTEKEKNELIDKYKKLLSQIPENTQNPGEKNIRDYLKNEYEEILKKDNLFEHEHAEFKESLNLNESFYLQLKKEEKKPSDNLKKEEKPRENSVKERETPAENNDFVSVTEKNNLIDKYKELLSKIPENTQNPGEKNIRNYLEKEYEELLQKDKLFKHEYTEFTKSLNLNETFYSQLKEGEMKLSENPEKGETNTN
B3: IgdEpseudoporcinus: IgdE isolated from S. pseudoporcinus strain ATCC BAA-1381, SEQ ID NO: 9 (protein, listed as Streptococcus pseudoporcinus)
chain: RENENVRQLQSENKQMKAVNLQEFSEKLKGEIAENQQFHIFKLGLNNYYIGGVRINELSDLAKNHDFIMIDNRATHNKYGVPHIIIMNKDDVIVHNQEDYNKEMAELTFAGDKPIQSDSYLPQKKRIHALFEIGLDSNRRQLLNAAGLKTPENSVIELDTFKIYSHGLAVDNKYYDEYSHFNNNTNVNITKQRFTENDNLIHNLITTSTAKDQPTDRDKVKTFVMYVANHTIYDWNAANNAVSNISDVNYYLGSDLFSITERKKAMCVGFSTTAARAFNMLGIPAYVVEGKNAQGVDHATARVYYNGKWHTIDGTGFINGNRTRSTLYTESHFRSVGEDSYQLVGLNEDIPFDRNYMKIDKVYEEWAPKQKTADLLLVNKDKSLVGLDRVAYVEPVYVDKNRQDALTQIYKKLKETMESSSKKNPSSGGFSSLLGSASSDIAKLEGSSQLTQEEYDKIHRSMTSILTFFAQLDKDAAEAFEKGNDYKNYLATTKHAQ

Tests used:
porcine IgG [1] = assay: IgG cleavage by IgdE, SDS-PAGE; format: biochemical, pig; conditions: purified polyclonal IgG, reducing SDS-PAGE
Description: (A) Schematic illustration of IgdE and the different rIgdE constructs with potential active site residues substitutions and the C-terminal truncation variant. The secretion signal peptide (residues 1-37) is marked in light grey, the transglutaminase domain is boxed and the potential active site residues and substitutions are indicated. (B) 3.3 μM porcine IgG was incubated for 16 h at 37° C. with soluble fractions of E. coli cells expressing different rIgdE constructs. The reaction was analyzed SDS-PAGE under reducing conditions. […] The weak protein band of 37 kDa is a contaminant present in lysate preparation and not related to IgdE activity.
(§1) 0.5 mg/ml of porcine IgG (Sigma) in PBS or of other species (human, goat, cow, horse and mouse; all Sigma) were incubated with either crude extracts of induced E. coli carrying S. suis IgdE constructs mentioned above or 10 nM purified rIgdE for 16 h at 37° C. prior subjection to SDS-PAGE under either reducing or non-reducing conditions.
(§2) Samples for SDS-PAGE were prepared with either reducing or non-reducing sample buffer and heated to 95° C. for 5 min. 12% SDS-PAGE was either stained with Coomassie blue (Sigma), Coomassie Fluor™ Orange Protein Gel Stain (Invitrogen) or blotted to Hybond-P PVDF membrane (GE Healthcare) for western blot analyses. Membranes were blocked with 5% dry milk powder in 0.1% PBS-Tween, followed by incubation with horse-radish peroxidase conjugated antibodies. Goat anti-pig IgG-HRP (Thermo Scientific) and goat anti-porcine IgM-HRP (Thermo Scientific) was diluted 1:25′000 and goat anti-porcine IgA-HRP (Thermo Scientific) was diluted 1:12′500. Membranes were thoroughly washed with 0.1% PBS-Tween prior to development with Amersham ECL Select Western blotting detection reagent (GE Healthcare) according to manufactures instruction and pictured by LAS4000 imaging system (Fujifilm).

porcine IgA = assay: Ig cleavage in porcine plasma or serum, anti-IgA Western blot; format: biochemical, pig
Description: (§3) (A) 2% porcine plasma was incubated with (+) or without (−) 10 nM purified rIgdE.
(§4) The reaction was analyzed by anti-porcine IgG, IgM and IgA Western blots under reducing conditions. Only cleavage of IgG was observed (*). (B) 0.5 mg/ml IgG of different species was incubated with (+) or without (−) 10 nM purified rIgdE and analyzed by SDS-PAGE under reducing conditions. No cleavage of IgG derived from any other species than pig (*) was observed. The weak protein band of 37 kDa is a contaminant present in lysate preparation (see lane 2) and not related to IgdE activity. Images of different gels have been assembled into one figure.
as §2, with “Membranes were thoroughly washed with 0.1% PBS-Tween prior to development with Amersham ECL Select Western blotting detection reagent (GE Healthcare) according to manufactures instruction and pictured by LAS4000 imaging system (Fujifilm).” left out

goat IgG = assay: IgG cleavage by IgdE, SDS-PAGE; format: biochemical; conditions: purified polyclonal IgG, reducing SDS-PAGE
Description: as §1, §2

cow IgG = assay: IgG cleavage by IgdE, SDS-PAGE; format: biochemical; conditions: purified polyclonal IgG, reducing SDS-PAGE
Description: as §1, §2

mouse IgG = assay: IgG cleavage by IgdE, SDS-PAGE; format: biochemical; conditions: purified polyclonal IgG, reducing SDS-PAGE
Description: as §1, §2

horse IgG = assay: IgG cleavage by IgdE, SDS-PAGE; format: biochemical; conditions: purified polyclonal IgG, reducing SDS-PAGE
Description: as §1, §2

porcine IgG [2] = assay: Ig cleavage in porcine plasma or serum, anti-IgG Western blot; format: biochemical, pig
Description: as §3, §4
as §2, with “Membranes were thoroughly washed with 0.1% PBS-Tween prior to development with Amersham ECL Select Western blotting detection reagent (GE Healthcare) according to manufactures instruction and pictured by LAS4000 imaging system (Fujifilm).” left out

human IgG = assay: IgG cleavage by IgdE, SDS-PAGE; format: biochemical; conditions: purified polyclonal IgG, reducing SDS-PAGE
Description: (§5) (A) rIgdEagalactiae was incubated with polyclonal IgG of six different species for 18 h at 37° C. and analyzed by SDS-PAGE under reducing conditions. Degradation products are indicated by asterisks (*). Images of different gels have been used to create the figure. (B) rIgdEagalactiae was incubated with human or bovine serum for 18 h in 37° C. and analyzed by SDS-PAGE under reducing conditions. Degradation products are indicated by asterisks (*). (C) Western Blot with crude extracts of rIgdEagalactiae incubated with human and porcine serum for 18 h in 37° C. Membrane was treated with antibodies against human and porcine polyclonal IgG respectively. Degradation products are indicated by asterisks (*). (D) rIgdEagalactiae was incubated with subclasses of human IgG as well as human IgA and IgM for 18 h in 37° C. and analyzed by SDS-PAGE under reducing conditions. Degradation products are indicated by asterisks (*). Images of different gels have been used to create the figure.
as §1, §2

IgG = IgG degrading cysteine protease activity: specificity as summarised; format: biochemical; conditions: summary statement
From the text: Typically, polypeptides for use in accordance with the invention display immunoglobulin cysteine protease activity, and in particular IgG degrading cysteine protease activity. Preferably, the polypeptide cleaves IgG in the hinge region and more particularly in the hinge region of the heavy chain. Preferably, cleavage results in production of Fc and Fab fragments of IgG. Preferably the activity is specific for IgG. The IgG degrading cysteine protease activity may be determined by means of a suitable assay. For example, a test polypeptide may be incubated with IgG at a suitable temperature, such as 37° C. The starting materials and the reaction products may then be analysed by SDS PAGE to determine whether the desired IgG cleavage product is present. Typically this cleavage product is a 32 kDa fragment. Typically there is no further degradation of IgG after this first cleavage. The cleavage product may be subjected to N-terminal sequencing to verify that cleavage has occurred in the hinge region of IgG.
The IgG degrading cysteine protease activity of the polypeptides is generally IgG-specific in that the polypeptides may not degrade other classes of Ig, namely IgM, and IgA, when incubated with these immunoglobulins under conditions that permit cleavage of IgG.

IgG in human serum = assay: Ig cleavage in human serum, anti-IgG Western blot; format: biochemical
Description: as §5

monoclonal human IgG2 = assay: Cleavage of human IgG subclasses, SDS-PAGE; format: biochemical; conditions: 18 h, 37° C., reducing SDS-PAGE
Description: as §5

monoclonal human IgG4 = monoclonal human IgG4 (Homo sapiens, UniProt P01861); assay: Cleavage of human IgG subclasses, SDS-PAGE; format: biochemical; conditions: 18 h, 37° C., reducing SDS-PAGE
Description: as §5

monoclonal human IgG1 = assay: Cleavage of human IgG subclasses, SDS-PAGE; format: biochemical; conditions: 18 h, 37° C., reducing SDS-PAGE
Description: as §5

monoclonal human IgG3 = monoclonal human IgG3 (Homo sapiens, UniProt P01860); assay: Cleavage of human IgG subclasses, SDS-PAGE; format: biochemical; conditions: 18 h, 37° C., reducing SDS-PAGE
Description: as §5

human serum IgG1 = biological target: T1, human serum IgG1 (Homo sapiens, UniProt P01857); assay: Degradation of human serum IgG1, non-reducing Western blot; format: biochemical; conditions: 18 h at 37° C.
T1 construct: Human serum and monoclonal human IgG1 were incubated in presence (+) or absence (−) of rIgdEagalactiae; from tissue; host or cells: human serum
Description: Human serum and monoclonal human IgG1 were incubated in presence (+) or absence (−) of rIgdEagalactiae for 18 h at 37° C. and analyzed by Western blot under non-reducing conditions with a human IgG-specific antibody.

rat IgG = assay: IgG cleavage by IgdE, SDS-PAGE; format: biochemical; conditions: purified polyclonal IgG

T1 sequence (P01857 1-330 isoform P01857-1): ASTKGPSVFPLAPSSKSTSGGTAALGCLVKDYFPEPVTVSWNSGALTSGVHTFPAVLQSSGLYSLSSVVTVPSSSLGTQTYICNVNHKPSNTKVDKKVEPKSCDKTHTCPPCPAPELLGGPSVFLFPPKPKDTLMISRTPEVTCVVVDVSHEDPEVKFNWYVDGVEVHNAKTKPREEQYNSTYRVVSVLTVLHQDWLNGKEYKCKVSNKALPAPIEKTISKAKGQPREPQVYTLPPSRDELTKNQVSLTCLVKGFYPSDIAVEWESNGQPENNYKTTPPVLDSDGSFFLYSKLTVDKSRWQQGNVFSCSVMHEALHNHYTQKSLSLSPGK
Chain of monoclonal human IgG3 (P01860 1-377 isoform P01860-1): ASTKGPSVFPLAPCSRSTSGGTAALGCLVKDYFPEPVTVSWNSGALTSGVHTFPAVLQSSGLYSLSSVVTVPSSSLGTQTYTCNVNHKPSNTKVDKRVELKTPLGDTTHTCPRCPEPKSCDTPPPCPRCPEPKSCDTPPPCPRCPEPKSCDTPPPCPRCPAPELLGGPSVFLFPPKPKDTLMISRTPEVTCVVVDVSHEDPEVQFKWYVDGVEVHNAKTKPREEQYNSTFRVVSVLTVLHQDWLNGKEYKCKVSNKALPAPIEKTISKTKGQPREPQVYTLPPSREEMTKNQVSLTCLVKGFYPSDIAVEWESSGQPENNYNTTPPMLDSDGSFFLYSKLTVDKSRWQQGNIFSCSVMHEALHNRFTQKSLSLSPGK
Chain of monoclonal human IgG4 (P01861 1-327 isoform P01861-1): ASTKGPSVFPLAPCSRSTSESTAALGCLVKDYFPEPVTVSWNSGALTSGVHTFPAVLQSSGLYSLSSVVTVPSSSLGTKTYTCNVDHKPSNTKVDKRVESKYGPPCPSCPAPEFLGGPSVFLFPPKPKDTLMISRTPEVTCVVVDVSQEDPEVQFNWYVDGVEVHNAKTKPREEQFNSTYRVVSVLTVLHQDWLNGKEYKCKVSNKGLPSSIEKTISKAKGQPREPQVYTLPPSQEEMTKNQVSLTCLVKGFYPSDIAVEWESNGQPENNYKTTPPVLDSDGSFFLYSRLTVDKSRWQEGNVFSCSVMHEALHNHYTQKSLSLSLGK

Molecule | cleavage of polyclonal porcine IgG (32 kDa degradation product) (porcine IgG [1]) | cleavage of IgA in porcine plasma or serum (porcine IgA) | cleavage of polyclonal goat IgG (goat IgG) | cleavage of polyclonal cow IgG (cow IgG) | cleavage of polyclonal mouse IgG (mouse IgG) | cleavage of polyclonal horse IgG (horse IgG) | cleavage of IgG in porcine plasma or serum (porcine IgG [2]) | cleavage of polyclonal human IgG (32 kDa degradation product) (human IgG) | immunoglobulin specificity of the IgG degrading cysteine protease activity (IgG) | cleavage of IgG in human serum (IgG in human serum) | cleavage of monoclonal human IgG2 (monoclonal human IgG2) | cleavage of monoclonal human IgG4 (monoclonal human IgG4) | cleavage of monoclonal human IgG1 kappa (32 kDa degradation product) (monoclonal human IgG1) | cleavage of monoclonal human IgG1 lambda (32 kDa degradation product) (monoclonal human IgG1) | cleavage of monoclonal human IgG3 (monoclonal human IgG3) | degradation of human serum IgG1 (human serum IgG1) | cleavage of polyclonal rat IgG (rat IgG)
B1 | cleaved | but not IgM or IgA | No degradation product was observed | No degradation product was observed | No degradation product was observed | No degradation product was observed | cleaved IgG in porcine serum | No degradation product was observed | specific for porcine IgG |  |  |  |  |  |  |  | 
B2 | No degradation product was observed |  | No degradation product was observed | No degradation product was observed | No degradation product was observed | No degradation product was observed |  | cleaved | specific for human IgG, and specifically human IgG1 | cleaved IgG in human serum | No degradation product was observed | No degradation product was observed | cleaved | cleaved | No degradation product was observed | degrades human serum IgG1 completely to single cleaved IgG1 | 
B3 | cleaved |  | No degradation product was observed | No degradation product was observed | No degradation product was observed | No degradation product was observed | cleaved IgG in human and porcine serum | cleaved | specific for porcine IgG | cleaved IgG in human and porcine serum |  |  |  |  |  |  | No degradation product was observed

Source: patent publication US12006530B2, “Streptococcal proteases” (priority 2016, dated 2024)
